Experiments:
snRNP200-flag construct = molecular target: T1, snRNP200-flag construct (UniProt O75643 1-2136, limits assumed); assay: capture ELISA: antibody coated, snRNP200-flag lysate (3 ug/ml) captured, anti-flag HRP detection
T1 construct: mature; Used as lysate at 3 ug/ml, not purified; also called full-length snRNP200 with an N-terminal FLAG tag; not shown: N-terminal FLAG tag
Description: FIG. 20B. AML specific antibodies AT12-019, AT12-023, AT13-031 and AT13-037 or commercially available snRNP200-specific antibodies snRNP200 453 and snRNP200 454 were coated on an ELISA plate, incubated with a snRNP200-flag construct for capturing and with anti-flag HRP for detection.
HEK 293T cells were transfected with an expression vector containing the full-length open reading frame of snRNP200 with an N-terminal FLAG tag. At 2 days after transfection cells were harvested and lysed in lysis buffer containing protease inhibitors. This lysate was cleared and protein concentration was measured. AML specific antibodies AT12-019, AT12-023, AT13-031 and AT13-037 or commercially available snRNP200 specific antibodies (Bethyl labs) were then coated on an ELISA plate. The lysate was added at a concentration of 3 μg/ml for capturing. After extensive washing, captured snRNP200-flag was detected with a monoclonal mouse anti-flag HRP antibody (Sigma-Aldrich, clone M2).

[1] = molecular target: T2, snRNP200 (endogenous, from THP-1 cells) (human, UniProt O75643 1-2136); assay: immunoprecipitation from THP-1 membrane lysate, Western blot with mouse-anti-human snRNP200
T2 construct: also called U5-snRNP
Description: FIG. 20A. THP-1 membrane lysate was incubated with AT12-023 and AT13-031, with the influenza-specific antibody AT10-002 or with marker alone.
THP-1 cells were lysed and precleared with an irrelevant antibody (in-house generated RSV antibody D25) and beads to remove non specific binding proteins. Precleared lysate was then incubated with bead-labeled AML-specific antibodies or with the influenza specific antibody AT10-002 as a negative control (3 hrs at 4° C.). Antibody-incubated lysates were washed five times, bound proteins were eluted from the THP-1 lysate and then run on an SDS-PAGE gel. Proteins were blotted and stained with Ponseau S to reveal total protein. The blot was blocked with BSA and incubated with mouse-anti-snRNP200 (Millipore, clone 3B6.1) or Rabbit-anti-HMGB1 (Abcam) for Western blot analysis. Intracelllar staining for snRNP200 was performed after fixing and permeabilizing THP-1 cells with methanol (Sigma) and permeabilization buffer containing triton X-100 (Sigma), EDTA (Gibco) and BSA (Roche), followed by incubation with rabbit-anti-human snRNP200 antibody (Sigma) overnight at 4° C.

T2 sequence (O75643 whole entry): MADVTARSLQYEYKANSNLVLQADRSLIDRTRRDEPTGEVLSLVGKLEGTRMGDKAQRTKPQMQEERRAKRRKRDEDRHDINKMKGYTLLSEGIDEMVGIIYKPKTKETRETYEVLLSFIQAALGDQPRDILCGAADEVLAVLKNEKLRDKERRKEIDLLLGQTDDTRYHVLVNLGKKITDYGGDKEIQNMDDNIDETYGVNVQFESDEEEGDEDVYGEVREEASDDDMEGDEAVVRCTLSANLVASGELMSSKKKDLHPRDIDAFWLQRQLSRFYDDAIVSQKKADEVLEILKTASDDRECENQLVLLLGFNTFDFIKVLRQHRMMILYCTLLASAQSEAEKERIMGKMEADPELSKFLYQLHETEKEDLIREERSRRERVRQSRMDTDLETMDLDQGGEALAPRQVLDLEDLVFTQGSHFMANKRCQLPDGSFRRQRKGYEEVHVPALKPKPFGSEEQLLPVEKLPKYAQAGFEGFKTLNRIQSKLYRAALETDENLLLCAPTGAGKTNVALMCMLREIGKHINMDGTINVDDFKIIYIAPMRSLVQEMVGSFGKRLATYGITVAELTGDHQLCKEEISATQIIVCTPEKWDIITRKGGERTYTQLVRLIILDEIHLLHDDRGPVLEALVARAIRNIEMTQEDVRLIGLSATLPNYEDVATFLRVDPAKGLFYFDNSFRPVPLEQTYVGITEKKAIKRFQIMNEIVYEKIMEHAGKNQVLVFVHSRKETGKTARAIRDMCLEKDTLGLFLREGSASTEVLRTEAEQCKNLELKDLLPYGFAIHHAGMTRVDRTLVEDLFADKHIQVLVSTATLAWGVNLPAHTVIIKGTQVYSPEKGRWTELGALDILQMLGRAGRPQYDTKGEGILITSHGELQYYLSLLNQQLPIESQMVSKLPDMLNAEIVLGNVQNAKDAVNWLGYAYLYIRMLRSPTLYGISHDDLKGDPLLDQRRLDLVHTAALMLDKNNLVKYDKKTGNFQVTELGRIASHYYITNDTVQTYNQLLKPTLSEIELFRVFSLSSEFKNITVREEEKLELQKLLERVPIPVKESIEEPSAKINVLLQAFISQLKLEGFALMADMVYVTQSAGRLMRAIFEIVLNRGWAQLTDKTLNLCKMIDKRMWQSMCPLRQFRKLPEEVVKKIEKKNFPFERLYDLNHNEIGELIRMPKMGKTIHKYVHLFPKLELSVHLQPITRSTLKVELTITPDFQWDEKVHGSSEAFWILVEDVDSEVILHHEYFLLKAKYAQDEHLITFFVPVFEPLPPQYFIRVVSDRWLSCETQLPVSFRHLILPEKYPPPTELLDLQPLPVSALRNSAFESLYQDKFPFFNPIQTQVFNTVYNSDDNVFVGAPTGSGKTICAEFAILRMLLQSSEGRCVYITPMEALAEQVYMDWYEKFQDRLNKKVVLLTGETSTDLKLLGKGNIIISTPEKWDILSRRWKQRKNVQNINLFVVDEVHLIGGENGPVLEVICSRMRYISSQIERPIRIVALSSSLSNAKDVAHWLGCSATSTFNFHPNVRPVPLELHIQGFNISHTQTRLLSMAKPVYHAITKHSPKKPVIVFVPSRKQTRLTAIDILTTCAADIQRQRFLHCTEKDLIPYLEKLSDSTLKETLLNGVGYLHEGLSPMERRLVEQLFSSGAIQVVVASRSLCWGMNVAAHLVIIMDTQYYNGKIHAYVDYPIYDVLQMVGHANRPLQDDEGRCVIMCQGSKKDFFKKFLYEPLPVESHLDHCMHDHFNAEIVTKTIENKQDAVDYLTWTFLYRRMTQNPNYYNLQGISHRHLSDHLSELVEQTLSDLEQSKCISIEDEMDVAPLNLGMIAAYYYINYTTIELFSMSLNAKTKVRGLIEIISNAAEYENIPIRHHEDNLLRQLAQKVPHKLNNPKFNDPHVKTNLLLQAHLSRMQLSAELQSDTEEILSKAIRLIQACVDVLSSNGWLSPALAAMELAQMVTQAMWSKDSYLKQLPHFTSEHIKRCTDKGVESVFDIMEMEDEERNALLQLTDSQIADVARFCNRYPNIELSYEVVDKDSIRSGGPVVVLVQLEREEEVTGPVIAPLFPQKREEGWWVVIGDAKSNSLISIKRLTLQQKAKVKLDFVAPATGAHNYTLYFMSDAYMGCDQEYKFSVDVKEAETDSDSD
T1 sequence (O75643 whole entry): as above

Row | Binder | binding result (snRNP200-flag construct) | binding result [1]
1 | AT12-019 (antibody, IgG1, V domains shown, Human antibody from AML patient donor 59; also called antibody AT12-019) VH: EVHLLESGGGLVQPGGSLRLSCAASGFTFSSYAMSWVRQAPGKGLEWVSTIRASGGSTSYADSVKGRFTISRDNSQSRLYLQMNSLTAEDTAVYYCAKSPAMIRGVRGGDYFDYWGQGTLVTVSS VL: AIRLTQSPSSVSASTGDRVTITCRASQAFSSYLVWYQQKPGKAPNLLIYATSTLQGGVPSRFSGSGSGTDFTLTISNLQSEDFATYYCQQYYSYPPTFGQGTKLEIK | no binding | 
2 | AT12-023 (antibody, V domains shown, Human antibody from AML patient donor 59; also called antibody AT12-023) VH: QVQLQQWGAGLLKPSETLSLTCAVYGGSFSGYYWSWIRQPPGKGLEWIGEINHSGSTNYNPSLKSRVTISVDTSKNQFSLKLSSVTAADTAVYYCARGRSTSPLDYYYYYMDVWAKGTTVTVSS VL: SSELTQDPAVSVALGQTVRITCQGDFLRSYYASWYQQKPGQAPVLVIFGKNKRPSGIPDRFSGSSSGNTASLTITGAQAEDEADYYCNSRDRSGNHLVFGGGTKLTVL |  | binds

Source: patent US20200239593A1 (AIMM THERAPEUTICS B V, published 2020)
